Laboratory results reported in IntAct's records for PubMed 22453338.

B1: Cyclin-D1-binding protein 1 (Homo sapiens), O95273 (parent)
chain: MASATAPAAAVPTLASPLEQLRHLAEELRLLLPRVRVGEAQETTEEFNREMFWRRLNEAAVTVSREATTLTIVFSQLPLPSPQETQKFCEQVHAAIKAFIAVYYLLPKDQGITLRKLVRGATLDIVDGMAQLMEVLSVTPTQSPENNDLISYNSVWVACQQMPQIPRDNKAAALLMLTKNVDFVKDAHEEMEQAVEECDPYSGLLNDTEENNSDNHNHEDDVLGFPSNQDLYWSEDDQELIIPCLALVRASKACLKKIRMLVAENGKKDQVAQLDDIVDISDEISPSVDDLALSIYPPMCHLTVRINSAKLVSVLKKALEITKASHVTPQPEDSWIPLLINAIDHCMNRIKELTQSELEL
B2: Cyclin-D1-binding protein 1 (Homo sapiens), O95273 (parent)
chain: B1 chain
partner: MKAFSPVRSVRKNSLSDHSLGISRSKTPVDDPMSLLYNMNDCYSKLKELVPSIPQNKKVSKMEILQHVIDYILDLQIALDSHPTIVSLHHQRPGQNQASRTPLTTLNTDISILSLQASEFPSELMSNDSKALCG

Variants of: B1
Conditions: with ndf1_mouse Neurod1, Q60867
Sequence of ndf1_mouse Neurod1, Q60867 (Q60867 whole entry): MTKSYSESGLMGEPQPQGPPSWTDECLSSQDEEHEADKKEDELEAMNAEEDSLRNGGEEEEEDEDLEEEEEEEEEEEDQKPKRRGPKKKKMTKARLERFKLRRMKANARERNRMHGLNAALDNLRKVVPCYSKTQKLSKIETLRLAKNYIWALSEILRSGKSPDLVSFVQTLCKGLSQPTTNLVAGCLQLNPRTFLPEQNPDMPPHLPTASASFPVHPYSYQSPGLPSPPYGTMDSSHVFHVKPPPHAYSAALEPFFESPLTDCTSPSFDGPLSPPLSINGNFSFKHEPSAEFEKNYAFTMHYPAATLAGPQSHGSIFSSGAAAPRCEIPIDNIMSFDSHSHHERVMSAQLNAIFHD

| Variant | effect of a mutation on the interaction |
| --- | --- |
| V278R | increasing interaction |

Variants of: B1
Conditions: with ndf1_mouse Neurod1, Q60867
Remark: another data set of the same source

| Variant | effect of a mutation on the interaction |
| --- | --- |
| P166Y | increasing interaction |

Variants of: B1
Conditions: with ndf1_mouse Neurod1, Q60867
Remark: another data set of the same source

| Variant | effect of a mutation on the interaction |
| --- | --- |
| N169E | increasing interaction |

Variants of: B1
Conditions: with ndf1_mouse Neurod1, Q60867
Remark: another data set of the same source

| Variant | effect of a mutation on the interaction |
| --- | --- |
| V271F | increasing interaction |

Variants of: B2
Conditions: with id2_human ID2, Q02363

| Variant | effect of a mutation on the interaction |
| --- | --- |
| N169E | increasing interaction |

Variants of: B2
Conditions: with id2_human ID2, Q02363
Remark: another data set of the same source

| Variant | effect of a mutation on the interaction |
| --- | --- |
| V278R | increasing interaction |

Variants of: B2
Conditions: with id2_human ID2, Q02363
Remark: another data set of the same source

| Variant | effect of a mutation on the interaction |
| --- | --- |
| V271F | increasing interaction |

Variants of: B2
Conditions: with id2_human ID2, Q02363
Remark: another data set of the same source

| Variant | effect of a mutation on the interaction |
| --- | --- |
| P166Y | increasing interaction |
